Experimental data taken from patent publication US20100196385A1 (AstraZeneca / MedImmune, published 2010).

T1: human Dll1 (human, UniProt O00548 18-723)
T1 construct: whole, on cells
T1 sequence (looked up): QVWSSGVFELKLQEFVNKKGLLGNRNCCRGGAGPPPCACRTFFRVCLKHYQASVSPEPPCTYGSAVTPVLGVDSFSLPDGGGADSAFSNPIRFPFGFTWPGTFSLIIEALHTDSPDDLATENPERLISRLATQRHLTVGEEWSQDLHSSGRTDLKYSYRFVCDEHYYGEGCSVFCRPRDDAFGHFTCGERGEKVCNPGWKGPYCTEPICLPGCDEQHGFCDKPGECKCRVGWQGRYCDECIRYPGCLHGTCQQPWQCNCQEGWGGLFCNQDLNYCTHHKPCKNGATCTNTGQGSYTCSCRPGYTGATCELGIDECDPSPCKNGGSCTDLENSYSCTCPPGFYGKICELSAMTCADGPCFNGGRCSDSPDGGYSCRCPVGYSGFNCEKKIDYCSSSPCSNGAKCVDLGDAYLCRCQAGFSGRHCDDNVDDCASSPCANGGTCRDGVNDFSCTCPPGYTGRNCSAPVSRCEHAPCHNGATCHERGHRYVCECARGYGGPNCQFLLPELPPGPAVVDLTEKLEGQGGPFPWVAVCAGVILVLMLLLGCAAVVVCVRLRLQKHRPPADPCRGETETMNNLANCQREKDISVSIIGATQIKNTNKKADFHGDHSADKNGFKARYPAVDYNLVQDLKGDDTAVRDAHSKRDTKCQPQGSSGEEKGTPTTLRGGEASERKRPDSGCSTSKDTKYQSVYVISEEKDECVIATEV


Assays:
human Dll1 [1] = target: T1, human Dll1; assay: FACS, up to 300 µg/ml, HEK-293 cells stably overexpressing human Dll1
human Dll1 [2] = target: T1, human Dll1; assay: FACS, 15 µg/ml, 293T cells with human Dll1 vs mock
Outline: (§1)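 Read-out is the change in geometric mean fluorescence between mock-transfected and Jagged1- or Dll1-transfected cells. Anti-DLL4 antibodies bound to cells suspended in PBS containing 2% FCS during a 1 h incubation at 4 °C.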

full length human DLL4 = target: T2, full length human DLL4 (human, UniProt Q9NR61 27-685); assay: FACS competition, unlabeled antibody vs competitor Alexa-647 4B4, HEK293 cells with human DLL4
T2 construct: whole, on cells; also called native DLL4 expressed in HEK293 cells
Procedure: The ability of the purified DLL4 antibodies to inhibit the binding of other DLL4 antibodies to human DLL4 was assessed using a FACS assay. Briefly, antibodies were directly labelled with Alexa-647 using a commercially available labelling kit (e.g. Molecular Probes catalog #A30009, A-20186) as per the manufacturer's instructions. To determine the level of cross-competition, unlabelled anti-DLL4 antibodies (final concentration: 10-0.01 μg/ml) diluted in PBS containing 2% FCS were added to DLL4-expressing HEK 293 cells (as described in example 6; 50000 cells/well diluted in PBS containing 2% FCS) and incubated for 1 h at 4° C. Subsequently, Alexa-647 labeled anti-DLL4 antibodies were added at a final concentration of 0.1 μg/ml and plates were incubated for a further 1 h at 4° C. prior to washing and reading on a FACSCalibur instrument. Data that summarizes the ability of unlabeled antibodies (10, 1, 0.1 μg/ml) to compete with labeled 21H3RK for binding to human DLL4 is included in FIG. 3. Additional data that summarizes the ability of unlabeled antibodies to compete with labeled 21H3RK and 4B4 for binding to human DLL4 is included in Table 22.

human Jagged1 [3] = target: T3, human Jagged1 (human, UniProt P78504 34-1218); assay: FMAT, hybridoma supernatant, 293T cells with human Jagged1
T3 construct: whole, on cells
Outline: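 Transfected 293T cells (3000 expressing plus 15000 mock-transfected per well), in PBS with 2% FBS, were mixed with hybridoma supernatant and Cy5 goat anti-human IgG Fc (750 ng/ml final). After 3 h at room temperature, binding was read by FMAT fluorescence. Notch1/Fc served as positive control for DLL4 and Notch3/Fc for Jagged1.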

human Jagged1 [4] = target: T3, human Jagged1; assay: FACS, 5 µg/ml, 293T cells with human Jagged1 vs mock
Outline: as §1

[5] = target: T4, human soluble DLL4 (R&D systems catalog #1056-D4-050) (human, UniProt Q9NR61 27-524); assay: Biacore T100, antibody immobilised, soluble human DLL4 as analyte
T4 construct: Catalog number as printed; perhaps the same product as #1506-D4; also called antigen DLL4
Outline: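 Anti-DLL4 antibodies amine-coupled to CM5 chip (<200 RU). Soluble DLL4 injected from 32-64 nM in 3-fold dilutions, in triplicate, in HBS-P with 0.1 mg/ml BSA at 23° C. ka, kd and KD from a global 1:1 fit.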

T3 sequence (P78504 34-1218): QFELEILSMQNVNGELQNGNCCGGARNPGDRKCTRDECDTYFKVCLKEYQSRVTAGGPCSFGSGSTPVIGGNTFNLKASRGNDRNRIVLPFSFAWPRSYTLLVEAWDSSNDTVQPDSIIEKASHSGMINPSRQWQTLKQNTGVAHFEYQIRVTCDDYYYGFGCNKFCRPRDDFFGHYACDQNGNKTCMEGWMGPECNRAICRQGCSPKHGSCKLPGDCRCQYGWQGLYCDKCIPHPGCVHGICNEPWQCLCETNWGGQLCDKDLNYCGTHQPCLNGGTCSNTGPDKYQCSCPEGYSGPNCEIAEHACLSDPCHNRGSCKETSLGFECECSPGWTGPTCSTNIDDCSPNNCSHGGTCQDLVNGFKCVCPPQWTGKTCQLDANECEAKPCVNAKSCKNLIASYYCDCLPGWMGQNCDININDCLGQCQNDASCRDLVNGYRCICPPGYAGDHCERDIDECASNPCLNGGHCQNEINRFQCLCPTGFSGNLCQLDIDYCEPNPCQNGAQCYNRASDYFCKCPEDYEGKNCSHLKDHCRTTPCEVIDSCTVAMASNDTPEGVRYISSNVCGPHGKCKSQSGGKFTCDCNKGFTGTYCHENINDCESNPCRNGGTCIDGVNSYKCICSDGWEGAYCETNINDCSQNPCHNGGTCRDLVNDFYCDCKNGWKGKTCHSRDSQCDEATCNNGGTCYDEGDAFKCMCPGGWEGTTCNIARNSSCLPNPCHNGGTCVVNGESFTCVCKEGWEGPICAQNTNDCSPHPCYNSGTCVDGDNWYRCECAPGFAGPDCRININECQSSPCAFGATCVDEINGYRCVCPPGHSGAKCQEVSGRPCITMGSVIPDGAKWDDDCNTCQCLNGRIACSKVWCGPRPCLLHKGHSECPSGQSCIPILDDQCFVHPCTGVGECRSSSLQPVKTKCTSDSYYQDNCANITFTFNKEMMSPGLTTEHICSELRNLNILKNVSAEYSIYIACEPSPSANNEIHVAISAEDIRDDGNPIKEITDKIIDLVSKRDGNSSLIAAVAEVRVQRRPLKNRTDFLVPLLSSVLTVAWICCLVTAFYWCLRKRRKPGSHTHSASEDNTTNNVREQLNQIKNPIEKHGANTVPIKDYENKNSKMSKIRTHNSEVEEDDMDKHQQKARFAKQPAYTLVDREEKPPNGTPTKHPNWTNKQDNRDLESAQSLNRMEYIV
T4 sequence (Q9NR61 27-524 limits assumed): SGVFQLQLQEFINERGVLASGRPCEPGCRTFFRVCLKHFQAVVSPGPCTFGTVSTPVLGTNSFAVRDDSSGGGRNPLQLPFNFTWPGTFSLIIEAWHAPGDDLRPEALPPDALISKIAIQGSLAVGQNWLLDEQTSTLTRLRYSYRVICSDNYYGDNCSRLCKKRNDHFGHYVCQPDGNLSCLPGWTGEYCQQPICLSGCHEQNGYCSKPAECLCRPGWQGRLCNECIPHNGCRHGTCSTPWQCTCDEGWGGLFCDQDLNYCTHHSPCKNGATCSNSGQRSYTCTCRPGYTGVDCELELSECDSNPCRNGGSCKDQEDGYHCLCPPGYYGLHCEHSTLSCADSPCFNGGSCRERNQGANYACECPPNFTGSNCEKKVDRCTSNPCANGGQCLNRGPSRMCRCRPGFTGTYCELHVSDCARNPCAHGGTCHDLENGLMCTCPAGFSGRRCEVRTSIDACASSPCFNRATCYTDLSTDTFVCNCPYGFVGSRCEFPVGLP
T2 sequence (Q9NR61 27-685): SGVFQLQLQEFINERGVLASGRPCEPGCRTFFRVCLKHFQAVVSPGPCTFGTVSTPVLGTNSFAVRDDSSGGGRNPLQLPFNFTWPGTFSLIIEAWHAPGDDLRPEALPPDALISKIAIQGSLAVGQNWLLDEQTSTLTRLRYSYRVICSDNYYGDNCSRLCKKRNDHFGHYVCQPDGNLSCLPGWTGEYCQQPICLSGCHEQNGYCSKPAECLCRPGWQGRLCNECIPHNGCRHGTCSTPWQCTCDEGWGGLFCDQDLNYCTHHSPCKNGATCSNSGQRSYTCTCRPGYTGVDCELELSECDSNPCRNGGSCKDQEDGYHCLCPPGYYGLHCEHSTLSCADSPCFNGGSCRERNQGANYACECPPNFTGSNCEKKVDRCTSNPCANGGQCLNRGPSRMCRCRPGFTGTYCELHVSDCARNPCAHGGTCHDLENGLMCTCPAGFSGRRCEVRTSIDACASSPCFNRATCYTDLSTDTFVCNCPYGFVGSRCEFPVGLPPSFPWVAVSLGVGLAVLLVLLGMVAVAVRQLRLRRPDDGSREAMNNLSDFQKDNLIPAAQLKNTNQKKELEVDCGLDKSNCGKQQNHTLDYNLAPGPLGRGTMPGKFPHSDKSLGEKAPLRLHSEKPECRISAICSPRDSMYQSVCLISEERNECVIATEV

Binder	fold over background (human Dll1 [1]) [fold]	Dll1/mock ratio (human Dll1 [2])	IC50 (full length human DLL4) [µg/mL]	Count (human Jagged1 [3])	FL1 (human Jagged1 [3])	FL1 x count (human Jagged1 [3])	Jagged1/mock ratio (human Jagged1 [4])	Kd [5] [pM]	koff [5] [s⁻¹]	kon [5] [M⁻¹ s⁻¹]
4B4 (antibody, IgG4, V domains shown, Fully human; used for IgG4 rows and where no isotype is printed; also called 4B4 IgG4; 4B4.1) VH: QVLLIQSGAEVKKPGASVQVSCKASGYTFTNYGVIWVRQAPGQGLEYMGWISAYNGNTNYAQKLQDRVTMTSDTSTTTAYMELRSLRSDDTAVYYCARELGSSFDYWGQGTLVTVSS VL: SYELTQPPSVSVSPGQTARITCSGDALPKKYAYWYQQKSGQAPVLVIYEDIKRPSGIPERFSGSSSGTMATLTISGAQVEDEADYYCFSTDNSGDHSVFGGGTKLTVL	< 2.5	1.23	0.348	2	2590	5180	1.09	283	3.33e-05	118000
2H10 (antibody, IgG4, V domains shown, Fully human; used for IgG4 rows and where no isotype is printed; also called 2H10 IgG4) VH: QVQLVESGGGVVQPGRSLRLSCAASGFTFSRHGMHWVRQAPGKGLEWVAVVWFDGSNIYYADSVKGRFTISRDNSKNTLYLQMNSLRAEDTAMYYCARDSRIAAADYWGQGTLVTVSS VL: SYELTQPPSVSVSPGQTVSITCSGDKLGDKYVCWYQQKPGQSPVLVIYQESKRPSGIPERFSGSSSGNTATLTISGTQAMDEADYYCQTWDSSLVVFGGGTKLTVL	< 2.5	1.1	1.15	5	5030	25200	1.26	981	4.02e-05	40900
9G8 (antibody, IgG4, V domains shown, Fully human; used for IgG4 rows and where no isotype is printed; also called 9G8 IgG4) VH: QLQLQESGPGLVKPSETLSLSCTVSGGSISSSSSYWGLIRQPPGKGLEWIGSIYYSGSTYYSPSLKSRVSISVDTSKNQFSLKLSSVTAADTAVYFCARQGYGGHPDVFDIWGQGTMVTVSS VL: SSELTQSPSVSVSPGQTARITCSGDKLGDVYVCWYQQKTGQSPVLVIYEDTKRPSGIPERFSGSNSGNTATLTISGTQVMDEADYYCQAWDSTTAVIFGGGTKLTVL	< 2.5	1.23	0.856	0	0	0	1.07	132	1.36e-05	103000
21H3 (antibody, IgG4, V domains shown, Fully human; used for IgG4 rows and where no isotype is printed; also called 21H3 IgG4) VH: QVQLVQSGAEVKKPGASVKVSCKASGYTFTNYGITWVRQAPGQGPEWMGWISAYNGNTNYAQKLQDRVTVTTDTSTSTAYMELRSLRSDDTAVYYCARDRVPRIPVTTEAFDIWGQGTMVTVSS VL: QSVLTQPPSASGTPGQRVTISCSGSSSNIGSYFVYWYQQLPGTAPKLLIYRNNQRPSGVPDRFSGSESGTSASLAISGLRSEDEADYYCAAWDDSLSGHWVFGGGTRLTVL	–	1.16	0.274	0	0	0	1.12	481	0.000152	317000
